Two molecules from US20180207271A1 (CENTRE HOSPITALIER UNIVERSITAIRE VAUDOIS CHUV, published 2018) can be followed below.

First the molecules themselves.
B1: recombinant human IL-26 (ligand, UniProt Q9NPH9 22-171, looked up)
chain: KHKQSSFTKSCYPRGTLSQAVDALYIKAAWLKATIPEDRIKNIRLLKKKTKKQFMKNCQFQEQLLSFFMEDVFGQLQLQGCKKIRFVEDFHSLRQKLSHCISCASSAREMKSITRMKRIFYRIGNKGIYKAISELDILLSWIKKLLESSQ
notes: In some functional rows the IL-26 is natural IL-26 in TH17 cell supernatants, as said in the readout; also called rhIL-26; AK155
B2: anti-IL-26 mouse monoclonal antibody clone 142-84-B1 (antibody, V domains shown)
VH: QVQLQQSGAELVRPGASVTLSCKASGFTFPDYEIHWVRQTPVHGLEWIGGIDPETGDTANNQKFKGKATLTADTSSSTAYMELRSLTSEDSAVYYCTRFYGSFDYWDQGTTLTVSS
VL: NIMMTQSPSSLAVSAGEKVTLSCKSSQSVLYSSNQKNYLAWYQQKPGQSPKLLIYWASTRESGVPDRFTGSGSGTDFTLTISSVQAEDLAVYYCHQYLSSYTFGGGTKLEIK
notes: Mouse hybridoma antibody, IgG1; also called clone 84

Data set [1] concerns the molecule itself. Put plainly: small angle X-ray scattering (SAXS) of rhIL-26, self-association. Here is the method:
IL-26 was suspended in 16 mM sodium phosphate buffer, pH 6.5, 560 mM NaCl, 8% glycerol, 2 mM β-mercaptoethanol and concentrated to 1.1 mg/ml. Data were recorded at the ALS, Berkeley, Calif., beamline 12.3.1. (SIBYLS) at 10° C. using a wavelength of 1 A, for values of the momentum transfer vector q=(4π sin θ)/λ between 0.01 and 0.32 Å-1. The same sample was sequentially exposed to X-rays for 0.5s, 1s and 5s. Samples containing buffer only were measured before and after protein samples. The buffer contributions were subtracted from protein scattering data using the ogre new software program available at SIBYLS. Data were not affected by radiation damage as indicated by a constant Rg of the Guinier region for subsequent sample exposures. A combined SAXS pattern was obtained through scaling and merging selected regions of buffer-subtracted scattering pattern for the 0.5s, 1s and 5s exposures. Data between q=0.01 and 0.13 Å-1 were analyzed using PRIMUS, SASREF and DAMMIF of the ATSAS software package.

The target of the data set “recombinant human IL-26” is B1. The experiment in a line: ELISA screen of hybridomas. Background: An ELISA detects its analyte on a solid surface through an enzyme-linked reagent.

Consider B1, for which the binding result in data set [1] is given as “binds”. On to B2, for which the binding result in the data set with recombinant human IL-26 is “binds”.
